Laboratory results taken from patent US20110263454A1, “Methods of Identifying Functional Characteristics of Promoters, Transcription Modifying Proteins and Transcription Modulating Agents” (Salk Institute for Biological Studies, priority 2008, published 2011).

B1: SHP: Small Heterodimer Partner (NR0B2), cDNA driver (protein, UniProt Q15466 1-257, looked up)
Nuclear receptor subfamily 0 …: MSTSQPGACPCQGAASRPAILYALLSSSLKAVPRPRSRCLCRQHRPVQLCAPHRTCREALDVLAKTVAFLRNLPSFWQLPPQDQRRLLQGCWGPLFLLGLAQDAVTFEVAEAPVPSILKKILLEEPSSSGGSGQLPDRPQPSLAAVQWLQCCLESFWSLELSPKEYACLKGTILFNPDVPGLQAASHIGHLQQEAHWVLCEVLEPWCPAAQGRLTRVLLTASTLKSIPTSLLGDLFFRPIIGDVDIAGLLGDMLLLR
B2: GCNF: Germ Cell Nuclear Factor (NR6A1, GCNF1), cDNA driver (protein, UniProt Q15406 1-480, looked up)
Nuclear receptor subfamily 6 …: MERDEPPPSGGGGGGGSAGFLEPPAALPPPPRNGFCQDELAELDPGTISVSDDRAEQRTCLICGDRATGLHYGIISCEGCKGFFKRSICNKRVYRCSRDKNCVMSRKQRNRCQYCRLLKCLQMGMNRKAIREDGMPGGRNKSIGPVQISEEEIERIMSGQEFEEEANHWSNHGDSDHSSPGNRASESNQPSPGSTLSSSRSVELNGFMAFREQYMGMSVPPHYQYIPHLFSYSGHSPLLPQQARSLDPQSYSLIHQLLSAEDLEPLGTPMLIEDGYAVTQAELFALLCRLADELLFRQIAWIKKLPFFCELSIKDYTCLLSSTWQELILLSSLTVYSKQIFGELADVTAKYSPSDEELHRFSDEGMEVIERLIYLYHKFHQLKVSNEEYACMKAINFLNQDIRGLTSASQLEQLNKRYWYICQDFTEYKYTHQPNRFPDLMMCLPEIRYIAGKMVNVPLEQLPLLFKVVLHSCKTSVGKE
B3: DAX-1: DAX1 (NR0B1), cDNA driver (protein, UniProt P51843 1-470, looked up)
Nuclear receptor subfamily 0 …: MAGENHQWQGSILYNMLMSAKQTRAAPEAPETRLVDQCWGCSCGDEPGVGREGLLGGRNVALLYRCCFCGKDHPRQGSILYSMLTSAKQTYAAPKAPEATLGPCWGCSCGSDPGVGRAGLPGGRPVALLYRCCFCGEDHPRQGSILYSLLTSSKQTHVAPAAPEARPGGAWWDRSYFAQRPGGKEALPGGRATALLYRCCFCGEDHPQQGSTLYCVPTSTNQAQAAPEERPRAPWWDTSSGALRPVALKSPQVVCEAASAGLLKTLRFVKYLPCFQVLPLDQQLVLVRNCWASLLMLELAQDRLQFETVEVSEPSMLQKILTTRRRETGGNEPLPVPTLQHHLAPPAEARKVPSASQVQAIKCFLSKCWSLNISTKEYAYLKGTVLFNPDVPGLQCVKYIQGLQWGTQQILSEHTRMTHQGPHDRFIELNSTLFLLRFINANVIAELFFRPIIGTVSMDDMMLEMLCTKI

Experiments:
hMyoD promoter = assay: NHR-promoter luciferase screen, hMyoD promoter; assay type: cell-based, human; settings: for Luc. act., normalized to lacZ / Normalized Luc. act., normalized to control: MyoD promoter reporter, co-transfected HR, without or with its ligand; for Normalized Luc. act., normalized to control: relative to control; for luciferase activity normalized to lacZ activity and to a control, hMyoD: hMyoD promoter-luciferase, CV-1 cells, NHR +/- ligand, control = 1.00
Summary of the method: (§1)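 CV-1 cells were co-transfected with 50 ng NHR (homodimer or NHR/RXR heterodimer), 100 ng promoter-luciferase construct and 50 ng LacZ. Luciferase was normalized to LacZ and to a no-NHR/no-ligand control.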

mPer1 promoter = assay: NHR-promoter luciferase screen, mPer1 promoter; assay type: cell-based, mouse; settings: for Luc. act., normalized to lacZ / Normalized Luc. act., normalized to control: Per1 promoter reporter, co-transfected HR, with or without its ligand; for Normalized Luc. act., normalized to control: relative to control; for luciferase activity normalized to lacZ activity and to a control, mPer1: mPer1 promoter-luciferase, CV-1 cells, NHR +/- ligand, control = 1.00
Summary of the method: as §1

mAgrp promoter = assay: NHR-promoter luciferase screen, mAgrp promoter; assay type: cell-based, mouse; settings: for Results of assays of transcription factor (+/- ligand) with mAgrp: Table 6d, luciferase activity relative to control (control = 1.00); for Luc. act., normalized to lacZ / Normalized Luc. act., normalized to control: mAgrp promoter, HR component with or without ligand; for Normalized Luc. act., normalized to control: relative to control
Summary of the method: as §1

mAdiponectin promoter = assay: NHR-promoter luciferase screen, mAdiponectin promoter; assay type: cell-based, mouse; settings: for Luc. act., normalized to lacZ / Normalized Luc. act., normalized to control: Adiponectin, HR component without or with its ligand; for mAdiponectin promoter reporter activity: transcription factor +/- ligand, control = 1.00
Summary of the method: as §1

mDio1 promoter = assay: NHR-promoter luciferase screen, mDio1 promoter; assay type: cell-based, mouse; settings: for Luc. act., normalized to lacZ / Normalized Luc. act., normalized to control: Dio1, HR component without or with its ligand; for mDio1 promoter reporter activity: transcription factor +/- ligand, control = 1.00
Summary of the method: as §1

Bmal1 promoter = assay: NHR-promoter luciferase screen, Bmal1 promoter; assay type: cell-based, mouse; settings: for Luc. act., normalized to lacZ / Normalized Luc. act., normalized to control: Bmal1 promoter, HR component without or with ligand; for mBmal1 promoter reporter activity: transcription factor +/- ligand, control = 1.00
Summary of the method: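 CV-1 cells co-transfected with 50 ng NHR (V5H6-tagged, pcDNA3.1; homodimer or RXR heterodimer), 100 ng Bmal1 promoter-luciferase and 50 ng LacZ. Luciferase was normalized to LacZ and to a no-NHR/ligand control.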

Molecule | Luc. act., normalized to lacZ (hMyoD promoter) | Normalized Luc. act., normalized to control (hMyoD promoter) | luciferase activity normalized to lacZ activity and to a control, hMyoD (hMyoD promoter) | Luc. act., normalized to lacZ (mPer1 promoter) | Normalized Luc. act., normalized to control (mPer1 promoter) | luciferase activity normalized to lacZ activity and to a control, mPer1 (mPer1 promoter) | Results of assays of transcription factor (+/- ligand) with mAgrp (mAgrp promoter) | Luc. act., normalized to lacZ (mAgrp promoter) | Normalized Luc. act., normalized to control (mAgrp promoter) | Luc. act., normalized to lacZ (mAdiponectin promoter) | Normalized Luc. act., normalized to control (mAdiponectin promoter) | mAdiponectin promoter reporter activity (mAdiponectin promoter) | Luc. act., normalized to lacZ (mDio1 promoter) | Normalized Luc. act., normalized to control (mDio1 promoter) | mDio1 promoter reporter activity (mDio1 promoter) | Luc. act., normalized to lacZ (Bmal1 promoter) | Normalized Luc. act., normalized to control (Bmal1 promoter) | mBmal1 promoter reporter activity (Bmal1 promoter)
B1 | 54.0 | 0.9 | 0.85 | 130.3 | 0.9 | 0.90 | 1.12 | 44.6 | 1.1 | 46.1 | 0.7 | 0.73 | 4.8 | 1.1 | 1.07 | 14.0 | 0.9 | 0.89
B2 | 50.5 | 0.8 | 0.80 | 151.9 | 1.1 | 1.06 | 1.42 | 56.5 | 1.4 | 63.1 | 1.0 | 1.00 | 5.1 | 1.1 | 1.13 | 13.7 | 0.9 | 0.88
B3 | 61.3 | 1.0 | 0.97 | 153.4 | 1.1 | 1.07 | 1.07 | 42.3 | 1.1 | 45.6 | 0.7 | 0.73 | 8.9 | 2.0 | 2.00 | 19.6 | 1.3 | 1.25
